Where a chain is given by its changes, count along the chain named.
B1: prothymosin α (ProTα), isoform 2 (natural protein, UniProt P06454-2 1-110, looked up)
chain: MSDAAVDTSSEITTKDLKEKKEVVEEAENGRDAPANGNANEENGEQEADNEVDEEEEEGGEEEEEEEEGDGEEEDGDEDEEAESATGKRAAEDDEDDDVDTKKQKTDEDD
notes: prothymosin α, isoform 2, used for NMR (unlabelled, 15N- or 13C,15N-labelled); BMRB 27215 holds its assignments; Isotope-labelled and unlabelled forms are treated as one molecule; also called 15N-ProTα; source: produced as previously described [16,34,52,78]
B2: RST domain of the plant protein RCD1 (domain or fragment)
chain: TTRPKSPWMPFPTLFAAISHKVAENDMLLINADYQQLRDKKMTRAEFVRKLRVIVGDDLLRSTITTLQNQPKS
notes: folded RST domain of the plant protein RCD1, net charge +5; also called RCD1-RST; source: produced as previously described [16,34,52,78]
B3: H1-GD variant 6K1 (domain or fragment, human)
chain: DHPKYSDMIVAAIQAEKNRAGSSRQSIQQYIKSHYKVGENADSQIKLSIQRLVTTGVLQQTQGVGASGSFRLAK
notes: net charge +5; source: produced as previously described [16,34,52,78]
B4: H1-GD variant 6K2 (domain or fragment, human)
chain: B3 chain with K17Q, Q29K, Q59K, K74Q
notes: as for B3

Columns and labels:
Conditions in all cases: both partners purified
[1] = target: T1, wild-type human histone H1.0, full length (produced recombinantly, for NMR) (human, UniProt P07305 1-194); experiment: NMR titration; 1H-15N HSQC of 15N-ProTα (28 μM) with GD up to 8x molar ratio, or 8x RST or CaM; 15N-ProTα (37 μM) with 2x full-length H1; 283 K, TBSK buffer (10 mM Tris, 155 mM KCl, 0.1 mM EDTA), pH 7.4
T1 construct: human linker histone H1.0, wild type, full length; also called full-length H1; linker histone H1.0; source: produced recombinantly [16]

[2] = target: B1; experiment: as above
[3] = target: B1; experiment: NMR titration; 1H-15N HSQC of 15N-ProTα (50 μM) with 4x molar ratio of GD-WT or a GD variant; sum of CSPs normalised to that with GD-WT at the same ratio and batch; 283 K, TBSK buffer, pH 7.4

T1 sequence (P07305 whole entry): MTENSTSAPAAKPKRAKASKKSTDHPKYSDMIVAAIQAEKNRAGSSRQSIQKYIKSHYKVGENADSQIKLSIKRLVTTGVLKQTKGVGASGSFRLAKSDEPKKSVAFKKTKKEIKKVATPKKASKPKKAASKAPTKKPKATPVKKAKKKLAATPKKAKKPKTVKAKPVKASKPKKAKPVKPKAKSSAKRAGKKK

| Binder | Relative CSPsum [3] | other results |
| --- | --- | --- |
| B1 | – | binding result [1]: binds |
| B2 | – | binding result [2]: binds |
| B3 | 0.11 | – |
| B4 | 0.13 | – |

— article PMC11971343, “Role of charges in a dynamic disordered complex between an IDP and a folded domain” (Nature Communications, 2025)
